Test results taken from US20050164339.

Assays:
[1] = target: T1, His6-LctA modified by LctM
T1 chain: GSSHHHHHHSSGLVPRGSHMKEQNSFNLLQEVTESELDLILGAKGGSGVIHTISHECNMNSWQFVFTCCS

LctMutA = target: T2, LctMutA
T2 chain: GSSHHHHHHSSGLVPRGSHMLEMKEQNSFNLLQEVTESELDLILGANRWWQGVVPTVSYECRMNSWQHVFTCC

His6-LctA = target: T3, His6-LctA
T3 chain: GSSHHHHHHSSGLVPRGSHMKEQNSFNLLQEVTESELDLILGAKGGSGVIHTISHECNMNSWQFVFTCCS

B1: Endoproteinase Lys-C from Lysobacter enzymogenes (protein)
chain: GVSGSCNIDVVCPEGNGHRDVIRSVAAYSKQGTMWCTGSLVNNSANDKKMYFLTANHCGMTTAAIASSMVVYWNYQNSTCRAPGSSSSGANGDGSLAQSQTGAVVRATNAASDFTLLELNTAANPAYNLFWAGWDRRDQNFAGATAIHHPNVAEKRISHSTVATEISGYNGATGTSHLHVFWQASGGVTEPGSSGSPIYSPEKRVLGQLHGGPSSCSATGADRSDYYGRVFTSWTGGGTSATRLSDWLDAAGTGAQFIDGLDSTGTPPV
proteolytic cleavage (MALDI-MS) [1]: cleavage of the amide bond between Lys25 and Gly26 and removal of the leader sequence and the His6-tag

B2: GST-Lpd (protein)
chain: MKIVLQNNEQDCLLACYSMILGYFGRDVAIHELYSGEMIPPDGLSVSYLKNINMKHQVSMHVYKTDKKNSPNKIFYPKMLPVIIQWNDNHFVVVTKIYRKNVTLIDPAIGKVKYNYNDFMKKFSGYIITLSPNSSFTKKKRISEIIFPLK
proteolytic cleavage of the leader (MALDI-TOF MS; sensitivity of indicator strain L. lactis 117) [1]: Both unmodified and modified His-LctA were substrates for GST-Lpd
removal of the leader peptide (LctMutA): the protease domain of LctT can remove the leaser peptide and the His-tag
proteolytic cleavage of the leader (MALDI-TOF MS) (His6-LctA): Both unmodified and modified His-LctA were substrates for GST-Lpd
